Results from the supplement of paper PMC12764529.
± gives the half width of the 95% confidence interval.

Experiments:
[1] = folding stability dG unfold from trypsin proteolysis; higher = more stable
Outline: (§1)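 Designed mini-proteins with no cysteine and under 80 residues were kept only if AlphaFold2 dimer inter-PAE was above 15. In a PA-tagged cDNA display construct, they were digested with trypsin and chymotrypsin and then sequenced. K50 was inferred by Bayesian fitting of counts, and unfolding free energy was derived per protease or combined against a sequence-predicted unfolded-state K50 and a shared folded-state K50.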

[2] = folding stability dG unfold (combined trypsin and chymotrypsin); higher = more stable
Outline: as §1

[3] = folding stability dG unfold from chymotrypsin proteolysis; higher = more stable
Outline: as §1

| Sequence | folding stability dG unfold [1] | folding stability dG unfold [2] | folding stability dG unfold [3] |
| --- | --- | --- | --- |
| SSPALDEKYTAKVDAKVTSPEGKPLATFTIDVLTEEEAKKKIEEFVKELAEKLGRPDLPVTISNITIERVSA [r9_376_JUSTAS] | 0.519 ± 0.077 kcal/mol | 0.679 ± 0.25 kcal/mol | 0.921 ± 0.16 kcal/mol |
| SAPGLRTYTIYDPSGVRRTFPPSWDVTILEYDPKTGTVTLKITKHNTDPGAPVSTETEKRKATFLRDVESAG [r14_927_JUSTAS] | 0.575 ± 0.09 kcal/mol | 0.725 ± 0.061 kcal/mol | 0.824 ± 0.12 kcal/mol |
| SAGGSAMKVRLEVEEEDGKLRVRLEVEVGPPVVRVEVEAEVEEVDGELVLKVTVKVELSPEALEALSAGGSA [r15_725_TrROS_Hall] | 3.47 ± 0.22 kcal/mol | 3.78 ± 0.15 kcal/mol | 3.78 ± 0.11 kcal/mol |
| SAGGSAGGSAMPKVTIKITVYNAETGELRTVTLTLPEEDMSLEEIAAALPPGWRIVKVELLSAGGSAGGSAG [r3_80_TrROS_Hall] | 3.46 ± 0.077 kcal/mol | 4.34 ± 0.075 kcal/mol | 4.65 ± 0.074 kcal/mol |
| SAGGSAGGKPDLLLEARTDLFGEEREAEVFYDPSPPVLTITLPDGTVITLPEEEVEIEKETPLISAGGSAGG [r6_185_JUSTAS] | -0.297 ± 0.12 kcal/mol | -0.243 ± 0.28 kcal/mol | -0.273 ± 0.065 kcal/mol |
| SGMPPVSFANLELVAVSPDGTVTVVRAELTGPDGERYVWTGSLSELLKRLEEEDLTLDNFKEGGLIVAVDSA [r9_1078_TrMRF] | 2.77 ± 0.06 kcal/mol | 3.44 ± 0.041 kcal/mol | 3.75 ± 0.039 kcal/mol |
| SDETVELPTVYTLYFGKDGTPRYYITVTLGDGPVAMELPEVSPDVKDGDVVPVKVPSSVVTSYSVSSAPASA [r9_769_JUSTAS] | 0.671 ± 0.071 kcal/mol | 0.808 ± 0.059 kcal/mol | 0.777 ± 0.096 kcal/mol |
| SAGGSAGGSAGGGSTTTTTETYPENGLIFTTTTTVFDDGSLSVTTTTSPLPLPPSPFIATSAGGSAGGSAGG [r7_103_JUSTAS] | 1.29 ± 0.043 kcal/mol | 1.05 ± 0.18 kcal/mol | 0.394 ± 0.18 kcal/mol |
| SAGSKELVIVEKDEPVEGETLDYTNGKKKKFPKKVPVVKEIVLPKNSPEAEKIAKELSPPNVKVEILAKSAG [r5_468_JUSTAS] | -1.08 ± 0.81 kcal/mol | -0.617 ± 0.32 kcal/mol | -0.322 ± 0.11 kcal/mol |
| SAGGSAGGSAGGSPDGWKFKMEMFTVKVPGAKITIPDGKSITLPPGKEVTIMIMTYVPPSAGGSAGGSAGGS [r4_26_TrROS] | 2.25 ± 0.068 kcal/mol | 3.47 ± 0.092 kcal/mol | 3.81 ± 0.086 kcal/mol |
| SAGGSAGGSKITIKLIKNGEIVEEKEIEDKKTGKKIKIKAIKKDGKLYLVIEVDGKKYVIPLPSAGGSAGGS [r12_994_TrROS_Hall] | 2.02 ± 0.23 kcal/mol | 3.57 ± 0.39 kcal/mol | 3.93 ± 0.089 kcal/mol |
| SAGGSAGGSKKRTILIQFPNGSPEEAVDNIKNWLRALGNEPIPLEDVKIQWYPGNPGYFQIEISAGGSAGGS [r12_122_TrROS] | 1.81 ± 0.027 kcal/mol | 2.53 ± 0.12 kcal/mol | 2.94 ± 0.042 kcal/mol |
| GSAGVMFGSREDIEALAAALGPDVAPTDVTYDPSGYYYYTIPLPDGTPTSLTIPPDKYSPEEVAALARRLTS [r1_279_JUSTAS] | -0.346 ± 0.56 kcal/mol | 0.481 ± 0.14 kcal/mol | 0.703 ± 0.15 kcal/mol |
| SAGGSAGGSMIKRTVTVTVYFPGKPLSIPVEYTSEEELPVVAEEAVKPIIEKVPEYKIPEPKLSAGGSAGGS [r12_230_JUSTAS] | 0.529 ± 0.21 kcal/mol | 0.561 ± 0.33 kcal/mol | 0.292 ± 0.2 kcal/mol |
| SMKIEFLDVKEDGTIVIRLTLLRPDGKPPTKEEAAERAKEIAEILKPYFPDAEFTIEFDPESGEATIVIDSA [r9_485_TrMRF] | 4.66 ± 0.57 kcal/mol | 4.83 ± 0.33 kcal/mol | 4.7 ± 0.15 kcal/mol |
| SAGGSAGGLHPDEEFVVLFRIDVRARPVSPNAHPELKKKFPNAVIVEAKIDVLILPKEKVKELFSAGGSAGG [r6_830_TrMRF] | 2.84 ± 0.1 kcal/mol | 3.18 ± 0.19 kcal/mol | 3.44 ± 0.082 kcal/mol |

| Sequence | folding stability dG unfold [1] | folding stability dG unfold [2] | folding stability dG unfold [3] |
| --- | --- | --- | --- |
| SAGSITIPIDDPEEMKDQLKNIAENFGMSNQDAEQFKDQLKENIEIHRDGDRWYITIQPPPPPDPGQPPSAG [r5_717_TrROS] | 0.51 ± 0.15 kcal/mol | -0.121 ± 0.47 kcal/mol | -0.145 ± 0.55 kcal/mol |
| SAGSGPGETKLVEEVEIDPVGPIKDSNGNPRPIKVVTKKLVEVTILEDGTVEKKVLETVVETLPPDVPLSAG [r5_132_JUSTAS] | -0.498 ± 0.23 kcal/mol | -0.662 ± 0.51 kcal/mol | -0.575 ± 0.1 kcal/mol |
| SAGTIREALDNPKNKRVVIMIMIPPEDFPPGDPERYRERAREMANGIMGWFRERGLDVKIEIEIMYMPWSAG [r5_408_TrROS] | 2.38 ± 0.044 kcal/mol | 2.65 ± 0.079 kcal/mol | 2.77 ± 0.03 kcal/mol |
| SAGPKTLLLNIPPGEDVELLIGDKPYRIKVDPERLIGYAFDPETGEIFLIFHDPEKPIALITVFPSPPLSAG [r5_302_TrMRF] | 1.56 ± 0.042 kcal/mol | 2.18 ± 0.12 kcal/mol | 2.46 ± 0.11 kcal/mol |
| SAGGSAGGSAGGMEYSISNVTTETFPEGNKTVTVETYTFDDGGTITVTKENGKVLEVNPKSAGGSAGGSAGG [r7_552_JUSTAS] | -1.57 ± 0.56 kcal/mol | 0.135 ± 0.11 kcal/mol | 0.586 ± 0.062 kcal/mol |
| SAGGSAGGSMKIPEDETYEEKLPDGRKVTYTWEPESGLLKTTTTDPNNDTPTTSTYKVPPSSLLSAGGSAGG [r6_407_JUSTAS] | 0.0466 ± 0.2 kcal/mol | 0.262 ± 0.25 kcal/mol | 0.49 ± 0.31 kcal/mol |
| SAGGSAGGKKVYPIPGATPNQFRELLDENKGTLKIYMPNGKQEEFPIKPGMEPIPGGPAWIERKSAGGSAGG [r6_304_TrROS] | -0.834 ± 0.41 kcal/mol | -0.871 ± 0.36 kcal/mol | -1.29 ± 0.85 kcal/mol |
| SEKTVLSSSTSTSPTSITTTTTVKLPDGSLITTTTTYSSVTAAPTPAPGGTLVPTYSLPTTTTTTTLPPASA [r9_240_JUSTAS] | 0.845 ± 0.025 kcal/mol | 0.63 ± 0.11 kcal/mol | 0.309 ± 0.13 kcal/mol |
| SAGPKIRTIIKEILKELNPDRPIEIHTHPDGFIIIVNPDDGRFIMIKIDPDGDIKISEVVPAEEMKKMMSAG [r5_852_TrROS] | 1.84 ± 0.033 kcal/mol | 1.49 ± 0.13 kcal/mol | 1.17 ± 0.058 kcal/mol |
| SAGGSAGGSAGGPKAPGDKAVPATVEVRVTEYAVVPGLGEKLEKLPEKTFKATFVFFNKSAGGSAGGSAGGS [r10_122_TrMRF] | -0.48 ± 0.26 kcal/mol | 0.286 ± 0.092 kcal/mol | 0.611 ± 0.11 kcal/mol |
| SAGGSAGGSAGGLGPDTPYATLSVTLTFTVRLKVRDPVTGKEYEIEYDVTLTFTFTVPASAGGSAGGSAGGS [r10_1116_TrMRF] | 5.07 ± 0.54 kcal/mol | 5.58 ± 0.4 kcal/mol | 5.84 ± 0.31 kcal/mol |
| SAGPIIIRVKYPDGRQIDINPENPWQIQIWDPGGKKETYPFDSNEDAKDKVVDWLGEEHGWPIKDVEIVSAG [r5_119_TrROS] | 0.373 ± 0.043 kcal/mol | 0.403 ± 0.11 kcal/mol | 0.35 ± 0.059 kcal/mol |
| SASLTLTITLPDGAKITSITVEEVDGELVLTEITVETTNENGEKTTVTRTIVLKLPPAPPAHPDDPALKSAG [r14_95_TrROS_Hall] | 2.13 ± 0.13 kcal/mol | 2.45 ± 0.15 kcal/mol | 2.63 ± 0.12 kcal/mol |
| SAGGSAGGSAGGMVVKIKVDGKTITLSAEELKKNKDLLKELEKKGYKIVSIEVFEPEEESAGGSAGGSAGGS [r10_396_TrROS_Hall] | 1.57 ± 0.056 kcal/mol | 1.67 ± 0.08 kcal/mol | 1.71 ± 0.027 kcal/mol |
| SAGGSAGGSAGGSAPPKVEIEVTVLVKDEDGRLYVFKAKATFDLETNELTVEVEVYELPSAGGSAGGSAGGS [r4_445_TrROS_Hall] | 3.22 ± 0.39 kcal/mol | 4.66 ± 0.35 kcal/mol | 4.79 ± 0.13 kcal/mol |
